From patent publication US20180320138

Columns and labels:
[1] = test system: PKLR TALEN left subunit (synthetic construct (Xanthomonas TALE-FokI)?); assay: cell_activity; details: PKD2iPSC, with right subunit; 31% in PKD3iPSC; cleavage also seen by Surveyor assay
[2] = test system: PKLR TALEN right subunit (synthetic construct (Xanthomonas TALE-FokI)?); assay: cell_activity; details: PKD2iPSC, with left subunit; 31% in PKD3iPSC; cleavage also seen by Surveyor assay

| Sequence | TALEN cleavage efficiency [1] | TALEN cleavage efficiency [2] |
| --- | --- | --- |
| TGATCGAGCCACTGTACTCCAGCCTAGGTGACAGACGAGACCCTAGAGA (double strand) [PKLR intron 2 TALEN target, left half-site] | 40% |  |
| TGATCGAGCCACTGTACTCCAGCCTAGGTGACAGACGAGACCCTAGAGA (double strand) [PKLR intron 2 TALEN target, right half-site] |  | 40% |
